The text below walks through data of publication PMC7374715, “Conservation of Cdc14 phosphatase specificity in plant fungal pathogens: implications for antifungal development” (Scientific Reports, 2020).

Substrate in data set [1]: Cc1cc(=O)oc2c(F)c(OP(=O)(O)O)c(F)cc12
The data set can be described thus: purified protein, by the assay type. The conditions noted are these: other: DiFMUP, 0.5 nM enzyme, pH 7.5, 30 °C, mean of 3 ± SD.
Method: All enzyme concentrations were 0.5 nM, except for PsCdc14 and VHR, which were assayed at 2 and 5 nM, respectively. Fluorescence intensity was measured continuously on a Synergy H1 microplate reader (BioTek) with excitation and emission wavelengths set at 358 and 450 nm, respectively. Fluorescence intensity was converted to product concentration using a 6,8-difluoro-4-methylumbelliferone standard curve. Background fluorescence was subtracted from each reaction and initial rates were calculated from the slope of the linear portion of the product concentration versus time plots. kcat and KM were calculated as described above.

Substrate in data set [2]: O=[N+]([O-])c1ccc(OP(=O)(O)O)cc1
In kind it is biochemical, Botrytis cinerea. Particulars: other: pNPP, 25 mM HEPES pH 7.5, 30 °C, mean of 3 ± SD.
Method: (§1) Activities towards varying concentrations of para-nitrophenyl phosphate (pNPP) were measured in 100 µL assay buffer (25 mM HEPES pH 7.5, 2 mM TCEP, 1 mM EDTA, and 150 mM NaCl) at 30 °C. Enzyme concentrations were chosen to achieve absorbance values within the linear response range while satisfying the steady-state assumption where substrate consumption was < 1%. Reactions were initiated by enzyme addition and stopped with 1 N NaOH. Absorbance at 405 nm was measured on a Synergy H1 microplate reader (BioTek) and converted to product concentration using a para-nitrophenol standard curve. Initial rates were plotted as a function of substrate concentration and fit with the Michealis-Menten equation in GraphPad Prism (Version 8) to determine kcat and KM.

Substrate in data set [3]: O=[N+]([O-])c1ccc(OP(=O)(O)O)cc1
Method: as §1
The format is biochemical, Saccharomyces cerevisiae. The conditions noted are these: other: pNPP, 25 mM HEPES pH 7.5, 30 °C, mean of 3 ± SD.

Where two headings read alike, the source gives them in different places.

As usually defined, the Km is the concentration of substrate that gives half-maximal velocity. The kcat is the maximal rate divided by the concentration of active sites. Usually kcat/Km stands for the second-order rate constant that governs catalysis at low substrate concentration.

B1: BcCdc14 (Botrytis cinerea B05.10) (protein)
chain: MHPMDYNSMLEWATLLPNDAHPGASAKKGPKDPREEDRPFHWLTYTDRLYLASYTTPPSPDTLFPYPEQQSSRRSPTKRSARAADGPSVVSDKREPPHYFSVDDTLLYNAFHHDFGPLHIGHLYRFAVQFHDILGAPENKNKPVVFWSKADARSRANAACLLATYMVLIQSWAPHLALAPIAQADPPLMPFRDAGYSQADYGITVQDVVYGVWRAKEQGFCALPQFDLEEYERYERVDQGDFNWLTPDFLAFASPQHHPVQPILPSSPLYASLPTTLEDVDTHPTLPTPFKNVLKHFTSRNIGLVVRLNSELYSPSFFTALGIEHLDMIFDDGTCPPLSVVRKFITLAHEMITVQKRGIAVHCKAGLGRTGCLIGAYLIYRYGFTANEIIAYMRFMRPGMVVGPQQHWLHLNQGTFREWWIEEQFEIRMKEKLANMAPVTPRKGHYTSKSQVVTPPNGNQRTPLGEVDNERSHSIGAQEDYLPAPTPGQPRK
Consider B1, for which, in data set [1], the Km came to 0.034 ± 0.007 mM, the kcat was 1 ± 0.2 s⁻¹ and the kcat/Km amounted to 43100 ± 11000 M⁻¹ s⁻¹. Further, in data set [2], the Km stood at 16 ± 2 mM, the turnover number (kcat) was 0.38 ± 0.003 s⁻¹ and the kcat/Km came to 24 ± 2 M⁻¹ s⁻¹.

B2: ScCdc14 (Saccharomyces cerevisiae S288C) (protein)
chain: MRRSVYLDNTIEFLRGRVYLGAYDYTPEDTDELVFFTVEDAIFYNSFHLDFGPMNIGHLYRFAVIFHEILNDPENANKAVVFYSSASTRQRANAACMLCCYMILVQAWTPHQVLQPLAQVDPPFMPFRDAGYSNADFEITIQDVVYGVWRAKEKGLIDLHSFNLESYEKYEHVEFGDFNVLTPDFIAFASPQEDHPKGYLATKSSHLNQPFKSVLNFFANNNVQLVVRLNSHLYNKKHFEDIGIQHLDLIFEDGTCPDLSIVKNFVGAAETIIKRGGKIAVHCKAGLGRTGCLIGAHLIYTYGFTANECIGFLRFIRPGMVVGPQQHWLYLHQNDFREWKYTTRISLKPSEAIGGLYPLISLEEYRLQKKKLKDDKRVAQNNIEGELRDLTMTPPSNGHGALSARNSSQPSTANNGSNSFKSSAVPQTSPGQPRKGQNGSNTIEDIN
notes: made in house; host or cells: E. coli BL21 AI
As to B2, in data set [1], the Km came to 0.011 ± 0.003 mM, the kcat was 3 ± 0.4 s⁻¹ and the kcat/Km turned out to be 253000 ± 34000 M⁻¹ s⁻¹. In data set [3], the Km was 23 ± 1 mM, the kcat is 1.12 ± 0.08 s⁻¹ and the kcat/Km amounted to 50 ± 4 M⁻¹ s⁻¹.
